According to patent US5543392A, “Digestive tract cell activating agent of EGF and lactoferrin” (Morinaga Milk Industry Co., Ltd., priority 1992, dated 1996):

How the values were obtained:
[1] = tested on: IEC18 cells; test: Test 2: effect of simultaneous use of Lf or Lf-Hy and EGF on DNA synthesis (3H-thymidine incorporation); format: cell-based, rat; conditions: single use of bLf, various concentrations
[2] = tested on: IEC18 cells; test: Test 3: proliferation of small intestine epithelial cells (cell count by hemocytometer); format: cell-based, rat; conditions: single addition of 50 μg/ml; sixth and tenth days of culture; compared with control group and EGF single group
Protocol: ICE18 cells (the same ones as in the Test 1) were inoculated onto a 24-well culture plate by 5,000 cells per well, and were cultured for ten days with 1% FBS DMEM (0.5 ml) containing the following test subjects. During this test period, the medium was replaced on the third and the sixth days, and the number of cells was measured on the third, the sixth and the tenth days. The number of cells was counted by a hemocytometer after treating the cells with 0.25% trypsin solution and suspending them in the solution.
The test subjects included a sample added with nothing, a sample added with 10 ng/ml EGF, a sample added with 50 μg/ml bLf or bLf-Hy, and a sample added with 10 ng/ml EGF and 50 μg/ml bLf or bLf-Hy.

B1: bLf: bovine lactoferrin (manufactured by Yukijirushi Nyugyo Company) (protein, UniProt P24627 20-708, looked up)
Lactotransferrin: APRKNVRWCTISQPEWFKCRRWQWRMKKLGAPSITCVRRAFALECIRAIAEKKADAVTLDGGMVFEAGRDPYKLRPVAAEIYGTKESPQTHYYAVAVVKKGSNFQLDQLQGRKSCHTGLGRSAGWIIPMGILRPYLSWTESLEPLQGAVAKFFSASCVPCIDRQAYPNLCQLCKGEGENQCACSSREPYFGYSGAFKCLQDGAGDVAFVKETTVFENLPEKADRDQYELLCLNNSRAPVDAFKECHLAQVPSHAVVARSVDGKEDLIWKLLSKAQEKFGKNKSRSFQLFGSPPGQRDLLFKDSALGFLRIPSKVDSALYLGSRYLTTLKNLRETAEEVKARYTRVVWCAVGPEEQKKCQQWSQQSGQNVTCATASTTDDCIVLVLKGEADALNLDGGYIYTAGKCGLVPVLAENRKSSKHSSLDCVLRPTEGYLAVAVVKKANEGLTWNSLKDKKSCHTAVDRTAGWNIPMGLIVNQTGSCAFDEFFSQSCAPGADPKSRLCALCAGDDQGLDKCVPNSKEKYYGYTGAFRCLAEDVGDVAFVKNDTVWENTNGESTADWAKNLNREDFRLLCLDGTRKPVTEAQSCHLAVAPNHAVVSRSDRAAHVKQVLLHQQALFGKNGKNCPDKFCLFKSETKNLLFNDNTECLAKLGGRPTYEEYLGTEYVTAIANLKKCSTSPLLEACAFLTR
quantity of incorporated 3H-thymidine into DNA (FIG. 1) [1]: no effect | number of cells (FIGS. 3 and 4) [2]: significantly increased
